# In paper PMC6519451:
# Columns and labels:
# [1] = target: reconstituted 26S proteasome (wild-type base, lid, Rpn10 and 20S core) (S. cerevisiae) (UniProt P33299)
# [2] = target: 26S proteasome reconstituted with Cy3-labeled base (Rpt1-I191AzF-Cy3) (S. cerevisiae) (UniProt P33299); test: FRET or BRET
Substance,"KM of multiple-turnover processing (Michaelis-Menten, anisotropy) [1] [µM]","kapp (1/τapp) of tail insertion, fast phase [2] [s⁻¹]","τapp of tail insertion, fast phase [2] [s]"
ubiquitinated titin-I27^V15P-43-K-11 (from UniProt P0CG63 1-76),2,–,–
"ubiquitinated titin-I27^V15P-23-K-11, Cy5-labeled (from UniProt P0CG63 1-76)",–,1.4,–
"ubiquitinated titin-I27^V15P-23-K-25 (serine rich), Cy5-labeled (from UniProt P0CG63 1-76)",–,–,7.15
"ubiquitinated titin-I27^V15P-23-K-25, Cy5-labeled (from UniProt P0CG63 1-76)",–,–,1.73
ubiquitinated titin-I27^V15P-23-K-35 modified with Cy5 on its unstructured tail (from UniProt P0CG63 1-76),–,0.62,1.61
